Source: patent US20170305986A1, “NOVEL TGF-ALPHA MUTANT PROTEINS” (NEUROREPAIR, INC., priority 2014, published 2017)

Assays:
EGFR [1] = target: T1, EGFR (Homo sapiens, UniProt P00533); test: Cell based (affinity) ELISA: binding of hTGFα to EGFR on A431 cells; details: compared to wild type hTGFα
T1 construct: A431 cells, which are known to express high levels of EGFR on their surface; host or cells: A431 cells
Protocol: Binding activity of hTGFα to EGFR was also confirmed by cell based ELISA and FACS analysis using A431 cells, which are known to express high levels of EGFR on their surface. For the cell-based assay, A431 cells (ATCC#CRL1555) were seeded into the wells of a 96 well plate. A 1000 ng/ml solution of human TGFα (hTGFα) was serially diluted (two-fold dilutions), aliquots of each dilution added to the immobilized cells, and the plates incubated to allow binding. (FIG. 3A) After washing, bound hTGFα was detected using biotinylated anti-hTGFα (R&D Systems #BAF239) and Streptavidin conjugated with HRP. TMB was added to each well, the reactions stopped after four minutes, and the samples read as described above in paragraph a). (FIG. 3B) The standard curve was generated using Softmax. (FIG. 3C)
BAP060-hTGFα-B (mature hTGFα, aa 40-89, with PelB signal sequence) wild type and CPE™ mutants were transformed into E. coli BL21 (DE3) competent cells, and recombinant protein expression induced by addition of 1 mM IPTG at 37° C. for 3 hours in 96 well format (1st confirmation) or in 14 ml tubes (2nd confirmation). After three hours, the cells were collected and periplasmic proteins prepared by incubating the cells in OS buffer (200 mM Tris-HCl, pH 7.5, 20% sucrose, 1 mM EDTA) with DNAse, RNAse and lysozyme. After addition of lysis buffer (10 mM Tris, pH 7.5, 50 mM KCl, 1 mM EDTA and 0.1% of Na-deoxycholate) to the cells in OS buffer, the cells were centrifuged and the supernatants, which contained the periplasmic fractions, were transferred to microcentrifuge tubes. The concentration of hTGFα was determined by quantitation ELISA, and 25 ng/ml of hTGFα were incubated with A431 cells (ATCC#CRL1555) immobilized on the plate. Bound hTGFα was detected with biotinylated anti-hTGFα (R&D Systems, #BAF239) and Streptavidin conjugated with HRP. The reactions were stopped by addition of HCl after TMB was added to the wells and read immediately. OD450 nm value of the reactions was measured with a Molecular Device SPECTRAmax. The initial screen identified 94 CPE™ mutants that had 1.5 fold higher binding activity compared to the wild type TGFα in the primary screening. The sequences of these CPE™ mutants are shown below in Table 2, while select characteristics for all of the CPE™ mutants can be found in FIG. 11A.
A first confirmation was performed by re-transforming E. coli BL21 cells with plasmids containing the 94 CPE™ mutants, collected the periplasmic fractions after IPTG induction and performed quantitation ELISA and cell based ELISA. This first confirmation identified 37 CPE™ mutants having a higher binding activity compared to the wild type TGFα . The second confirmation identified 27 CPE™ putative hits that consistently had higher binding activity compared to the wild type TGFα. These 27 CPE™ mutants were then tested in a cell based EGFR phosphorylation assay to confirm the functional activity of the CPE™ mutants. (FIGS. 11B and 12B)
In addition, 15 CPS™ mutants (containing up to 5 mutations) having an increased ability to induce the phosphorylation of EGFR, relative to the wild type hTGFα (FIG. 14), were selected for cell based titration ELISA to confirm their binding activities (FIG. 15). Briefly, BAP060-hTGFα-B (mature hTGFα, aa 40-89, with PelB signal sequence) wild type and CPS™ mutants were transformed into E. coli BL21 (DE3) competent cells. Protein was expressed upon the addition of 1 mM IPTG at 37° C. for 3 hours in 96 well format. Cells were collected after induction and periplasmic proteins prepared by incubating the cells in OS buffer with DNAse, RNAse and lysozyme. Lysis buffer was added to the cells in OS buffer, the cells centrifuged, and the supernatants containing the periplasmic fractions transferred to a clean set of microcentrifuge tubes. Concentration of hTGFα in each sample was determined by quantitation ELISA. […]

[2] = Physical characteristics of mutants (isoelectric point, hydrophobicity); assay type: physicochemical; details: compared to wild type hTGFα
EGFR [3] = target: T1, EGFR; test: Cell based EGFR phosphorylation assay in A431 cells; details: compared to wild type hTGFα
Protocol: A cell based EGFR phosphorylation assay was set up to determine the binding activity of hTGFα to EGFR using a functional assay. A431 cells were seeded in 96 well formats and were serum starved overnight. The cells were washed in serum free media and incubated with 50 ul of 0, 50, 100 or 200 ng/ml of EGF (FIG. 5A, column 1) or hTGFα (FIG. 5A, column 2) in DMEM at 37° C. for 10 min: The cells were then washed with PBS and lysed. Half of the cell lysate were used to determine the level of total EGFR (FIG. 5C) using Cell Signaling kit #7250 and the other half of the cell lysate were used to determined the level of phosphorylated EGFR (FIG. 5B) using Cell Signaling kit #7240 following vendor's protocols.
EGFR phosphorylation. BAP060-hTGFα -B (mature hTGFα, aa 40-89, with PE1B signal sequence) was transformed into E. coli BL21 (DE3) competent cells. […] Half of the cell lysate were used to determine the level of total EGFR using Cell Signaling kit #7250 and the other half of the cell lysate were used to determined the level of phosphorylated EGFR using Cell Signaling kit #7240 following vendor's protocols.
E. coli BL21 cells were transformed with BAP060-hTGFα -B CPS™ mutants and induced with IPTG at 37° C. The periplasmic fractions after IPTG induction were collected and the expression levels of hTGFα determined by quantitation ELISA, as described above. […]

neuronal stem cell = details: ICV or intrastriatal infusion over 18 days, rat brain; cited from earlier work
[4] = tested on: central nervous system (CNS); details: peripheral route, animal model of Parkinson's disease; cited from earlier work

| Mutant Characteristics: affinity (EGFR [1]) | Substance | further results |
| --- | --- | --- |
| Neutral affinity, | BAP060-A041D: CPE™ single-substitution mutant of mature hTGFα | Mutant Characteristics: PI (isoelectric point) [2]: lower PI; Mutant Characteristics: hydrophobicity [2]: decreased |
| Increased affinity, | BAP060-Q014G: CPE™ single-substitution mutant of mature hTGFα |  |
| Increased affinity, | BAP060-A046Y: CPE™ single-substitution mutant of mature hTGFα |  |
| Neutral affinity, | BAP060-E027L: CPE™ single-substitution mutant of mature hTGFα |  |
| Increased affinity, | BAP060-F017L: CPE™ single-substitution mutant of mature hTGFα | Mutant Characteristics: P-EGFR induction (EGFR [3]): P-EGFR induction, |
| Increased affinity, | BAP060-A050W: CPE™ single-substitution mutant of mature hTGFα |  |
|  | TGF-α: member of the EGF family that binds the EGF receptor | neuronal stem cell proliferation (neuronal stem cell): induced neuronal stem cell proliferation; abnormal motor behavior [4]: ameliorates abnormal motor behavior; neurogenesis of the central nervous system [4]: promotes neurogenesis of the central nervous system (CNS) |
| Increased affinity, | BAP060-S036R: CPE™ single-substitution mutant of mature hTGFα |  |
